Measured values: EP4671273A1 (Anaveon AG, dated 2025)
Positions count from the first letter of the chain named.

B1: 21A08Ap1 (antibody, human IgG1, V domains shown)
VH: EVQLLESGGGLVQPGGSLRLSCAASGFTFSINAMTWVRQAPGKGLEWVSTISGSGFSTYYADSLKGRFTISRDNSKNTLYLQMNSLRAEDTAVYYCAKEVYGDYWGQGTLVTVSS
VL: RSVLTQPPSASGTPGQRVSISCSGASSNIGSQSVFWYQQLPGTAPKLLIYSNNQRPSGVPDRFSGSKSGTSASLAISGLRSEDEADYYCAAWDDSLSIWVFGGGTKLTVL
notes: human IgG1; also called anti-PD-1 antibody clone 21A08Ap1
B2: FHX509 (antibody, human IgG1, V domains shown)
VH: B1 VH
VL: B1 VL with I98A
notes: human IgG1
B3: JOH712 (antibody, human IgG1, V domains shown)
VH: B1 VH
VL: B1 VL with L40H
notes: human IgG1
B4: GZZ692 (antibody, human IgG1, V domains shown)
VH: B1 VH
VL: B1 VL with I49G
notes: human IgG1
B5: KYC847 (antibody, human IgG1, V domains shown)
VH: B1 VH
VL: B1 VL with S97T
notes: human IgG1
B6: KOW427 (antibody, human IgG1, V domains shown)
VH: B1 VH
VL: B1 VL with L48G
notes: human IgG1
B7: NWL270 (antibody, human IgG1, V domains shown)
VH: B1 VH
VL: B1 VL with I98N
notes: human IgG1
B8: SSR010 (antibody, human IgG1, V domains shown)
VH: B1 VH
VL: B1 VL with I29V
notes: human IgG1
B9: JZW468 (antibody, human IgG1, V domains shown)
VH: B1 VH
VL: B1 VL with S95Q
notes: human IgG1
B10: KWH245 (antibody, human IgG1, V domains shown)
VH: B1 VH
VL: B1 VL with W36T
notes: human IgG1
B11: GDY271 (antibody, human IgG1, V domains shown)
VH: B1 VH
VL: B1 VL with F35Y
notes: human IgG1
B12: ZAP122 Fab (Fab, V domains shown)
VH: QVQLQESGPGLVKPSETLSLTCTVSGGSISSDFWGWIRQPPGKGLEWIGYISSRGSTNYNPSLKRRVTISVDTSRNQFSLKLSSVTAADTAVYYCARSAGVTDFDFWGQGTLVTVSS
VL: DIQMTQSPSSVSASVGDRVTITCRASQGISSWLAWYQHKPGKAPKLLIYVASSLQSGVPSRFSGSGSGTDFTLTISSLQPEDFATYYCQQANSFPLTFGGGTKVEIK
notes: Fab; also called ZAP122 wt
B13: EFY288 (bispecific antibody, human IgG1, kappa, lambda, L234A L235A)
heavy 1: EVQLLESGGGLVQPGGSLRLSCAASGFTFSINAMTWVRQAPGKGLEWVSTISGSGFSTYYADSLKGRFTISRDNSKNTLYLQMNSLRAEDTAVYYCAKEVYGDYWGQGTLVTVSSASTKGPSVFPLAPSSKSTSGGTAALGCLVKDYFPEPVTVSWNSGALTSGVHTFPAVLQSSGLYSLSSVVTVPSSSLGTQTYICNVNHKPSNTKVDKRVEPKSCDKTHTCPPCPAPEAAGGPSVFLFPPKPKDTLMISRTPEVTCVVVDVSHEDPEVKFNWYVDGVEVHNAKTKPREEQYNSTYRVVSVLTVLHQDWLNGKEYKCKVSNKALAAPIEKTISKAKGQPREPQVCTLPPSREEMTKNQVSLSCAVKGFYPSDIAVEWESNGQPENNYKTTPPVLDSDGSFFLVSKLTVDKSRWQQGNVFSCSVMHEALHNHYTQKSLSLSPGK
light 1: not shown
heavy 2: QVQLQESGPGLVKPSETLSLTCTVSGGSISSDYWGWIRQPPGKGLEWIGYISYRGSTNYNPSLKSRVTISVDTSRNQFSLKLSSVTAADTAVYYCARSAGVTDFDAWGQGTLVTVSSASTKGPSVFPLAPSSKSTSGGTAALGCLVKDYFPEPVTVSWNSGALTSGVHTFPAVLQSSGLYSLSSVVTVPSSSLGTQTYICNVNHKPSNTKVDKRVEPKSCDKTHTCPPCPAPEAAGGPSVFLFPPKPKDTLMISRTPEVTCVVVDVSHEDPEVKFNWYVDGVEVHNAKTKPREEQYNSTYRVVSVLTVLHQDWLNGKEYKCKVSNKALAAPIEKTISKAKGQPREPQVYTLPPCREEMTKNQVSLWCLVKGFYPSDIAVEWESNGQPENNYKTTPPVLDSDGSFFLYSKLTVDKSRWQQGNVFSCSVMHEALHNHYTQKSLSLSPGK
light 2: not shown
B14: CDP451 (bispecific antibody, human IgG1, kappa, lambda, L234A L235A)
heavy 1: B13 heavy 1
light 1: not shown
heavy 2: B13 heavy 2 with Y33F, Y53S, S65R, A106F
light 2: not shown
B15: CDP278 (bispecific antibody, human IgG1, kappa, lambda, L234A L235A)
heavy 1: B13 heavy 1
light 1: not shown
heavy 2: B13 heavy 2 with Y33F, Y53S, S65R, A106F
light 2: not shown
B16: XOW683 (bispecific antibody, human IgG1, kappa, lambda, L234A L235A)
heavy 1: B13 heavy 1
light 1: not shown
heavy 2: B13 heavy 2 with R54S
light 2: not shown
B17: GWM570 (bispecific antibody, human IgG1, kappa, lambda, L234A L235A)
heavy 1: B13 heavy 1
light 1: not shown
heavy 2: B13 heavy 2 with Y33F, Y53S, S65R, A106F
light 2: not shown
B18: CHU368 (bispecific antibody, human IgG1, kappa, lambda, L234A L235A)
heavy 1: B13 heavy 1
light 1: not shown
heavy 2: B13 heavy 2
light 2: not shown
B19: JSQ278 Fab (Fab, V domains shown)
VH: B12 VH with F33Y, S53Y, R65S, F106A
VL: B12 VL with M4L, N92S
notes: Fab
B20: RPD212 Fab (Fab, V domains shown)
VH: B12 VH with F33Y, S53Y, R54S, R65S, F106A
VL: B12 VL with M4L, N92S
notes: Fab
B21: UER756 Fab (Fab, V domains shown)
VH: B12 VH with F33Y, R54S, R65S, F106A
VL: B12 VL with M4L, N92S
notes: Fab
B22: PAI969 Fab (Fab, V domains shown)
VH: B12 VH with F33Y, R54S, R65S, T102A, F106A
VL: B12 VL with M4L, N92S
notes: Fab
B23: OWS965 Fab (Fab, V domains shown)
VH: B12 VH with F33Y, S53Y, R54S, R65S, T102A, F106A
VL: B12 VL with M4L, N92S
notes: Fab
B24: IFQ920 Fab (Fab, V domains shown)
VH: B12 VH with T102A
VL: B12 VL with F94A
notes: Fab
B25: ZXI489 Fab (Fab, V domains shown)
VH: B12 VH with F33Y, S53Y, R65S, F106W
VL: B12 VL with M4L, N92S, F94A
notes: Fab
B26: VPH777 Fab (Fab, V domains shown)
VH: B12 VH with F33Y, R54S, R65S, T102A
VL: B12 VL with M4L, N92S
notes: Fab
B27: IOO459 Fab (Fab, V domains shown)
VH: B12 VH with F33Y, T102A
VL: B12 VL with F94A
notes: Fab

The binders below were run against T1, human PD-1 (#PD1-H82E4, AcroBiosystems) (human, UniProt Q15116 25-167) (assay: SPR, PD-1 on captured IgG1).
T1 construct: bought
T1 sequence (Q15116 25-167 limits assumed): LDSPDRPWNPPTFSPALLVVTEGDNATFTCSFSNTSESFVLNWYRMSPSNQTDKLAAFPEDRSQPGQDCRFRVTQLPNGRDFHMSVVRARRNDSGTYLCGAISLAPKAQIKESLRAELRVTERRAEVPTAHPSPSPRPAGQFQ

Kd [pM]	koff [s⁻¹]	kon [M⁻¹ s⁻¹]	Binder
1270	0.00011	86800	B1
694	8.38e-05	121000	B2
546	8.88e-05	163000	B3
1410	0.000209	148000	B4
528	7.59e-05	144000	B5
586	7.97e-05	136000	B6
229	9.82e-05	429000	B7
76.7	0.000199	2.6e+06	B8
631	9.2e-05	146000	B9
183	0.000305	1.67e+06	B10
3560	0.0013	364000	B11

Each binder was assayed against T2, cynomolgus PD-1 (#PD1-C52H5, AcroBiosystems) (cynomolgus monkey, UniProt B0LAJ3 25-170) (assay: SPR, PD-1 on captured IgG1).
T2 construct: bought; also called cynomolgus monkey PD-1; not shown: the vendor's tag on the recombinant protein (AcroBiosystems #PD1-C52H5)
T2 sequence (B0LAJ3 entry or part of it limits assumed, form in doubt): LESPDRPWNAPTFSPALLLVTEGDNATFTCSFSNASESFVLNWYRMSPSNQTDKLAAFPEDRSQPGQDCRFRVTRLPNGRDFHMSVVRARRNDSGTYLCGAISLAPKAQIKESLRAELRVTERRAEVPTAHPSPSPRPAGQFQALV

Kd [pM]	koff [s⁻¹]	kon [M⁻¹ s⁻¹]	Binder
1250	0.000259	206000	B1
699	0.000239	341000	B2
1110	0.000252	227000	B3
4500	0.00153	340000	B4
597	0.000139	233000	B5
1270	0.000296	233000	B6
949	0.00015	158000	B7
1140	0.000301	263000	B8
959	0.00029	302000	B9
2290	0.000644	281000	B10
6380	12.2	1.91e+09	B11

What follows are binders tested against T3, Recombinant hIL-21-Fc (AcroBiosystems) (human, UniProt Q9HBE4 30-162) (assay: SPR, Fab on captured rhIL-21-Fc).
T3 construct: bought; also called rhIL-21; not shown: Fc of the bought reagent, not described
T3 sequence (Q9HBE4 30-162): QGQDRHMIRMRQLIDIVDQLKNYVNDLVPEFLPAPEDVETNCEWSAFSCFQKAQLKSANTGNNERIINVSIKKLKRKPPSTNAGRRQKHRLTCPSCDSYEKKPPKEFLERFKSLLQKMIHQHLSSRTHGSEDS

Kd [pM]	koff [s⁻¹]	kon [M⁻¹ s⁻¹]	Binder
< 26.5	< 1e-05	377000	B12

The binders below were run against human IL-21 receptor (IL-21R) on cells (human, UniProt Q9HBE5 20-538; P31785 23-369) (assay: cell-based or functional assay).
Chain of human IL-21 receptor (IL-21R) on cells (Q9HBE5 20-538, chain 1 of 2): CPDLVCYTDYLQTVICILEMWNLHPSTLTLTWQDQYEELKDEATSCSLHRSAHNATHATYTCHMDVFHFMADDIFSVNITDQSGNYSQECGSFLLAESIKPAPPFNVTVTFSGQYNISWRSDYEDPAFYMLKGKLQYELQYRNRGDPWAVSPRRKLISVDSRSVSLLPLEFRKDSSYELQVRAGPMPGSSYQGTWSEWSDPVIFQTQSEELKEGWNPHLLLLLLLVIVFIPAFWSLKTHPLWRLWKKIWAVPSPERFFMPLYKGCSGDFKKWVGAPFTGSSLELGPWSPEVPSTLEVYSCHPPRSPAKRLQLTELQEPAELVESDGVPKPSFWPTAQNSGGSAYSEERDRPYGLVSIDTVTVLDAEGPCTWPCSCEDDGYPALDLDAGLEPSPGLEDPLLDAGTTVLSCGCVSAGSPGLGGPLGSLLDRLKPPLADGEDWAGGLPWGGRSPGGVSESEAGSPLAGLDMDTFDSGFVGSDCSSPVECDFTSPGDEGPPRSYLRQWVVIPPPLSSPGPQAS
Chain of human IL-21 receptor (IL-21R) on cells (P31785 23-369, chain 2 of 2): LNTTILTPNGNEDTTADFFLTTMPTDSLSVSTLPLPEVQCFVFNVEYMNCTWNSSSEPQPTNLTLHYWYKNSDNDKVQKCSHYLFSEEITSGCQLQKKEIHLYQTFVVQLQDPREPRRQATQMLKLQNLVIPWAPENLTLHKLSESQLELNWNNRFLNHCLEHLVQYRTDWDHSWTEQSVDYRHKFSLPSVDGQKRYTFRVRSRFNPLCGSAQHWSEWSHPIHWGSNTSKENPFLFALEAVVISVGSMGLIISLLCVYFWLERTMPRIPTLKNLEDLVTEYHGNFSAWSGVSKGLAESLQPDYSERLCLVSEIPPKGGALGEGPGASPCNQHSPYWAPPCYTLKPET

EC50B, pSTAT3+ Jurkat PD-1 cells, PD-1 blocked [nM]	EC50NB, pSTAT3+ Jurkat PD-1 cells [nM]	Binder
0.234	0.129	B13
1.24	0.106	B14
1.05	0.167	B15
1.84	0.413	B16
2.13	0.257	B17
2.16	0.583	B18

What follows are binders tested against T4, rhIL-21-His (AB235875-1001, Abcam) (human, UniProt Q9HBE4 30-162) (assay: SPR, Fab on captured rhIL-21-His).
T4 construct: bought; not shown: His tag, length and position not described
T4 sequence (Q9HBE4 30-162 limits assumed): as the sequence (Q9HBE4 30-162) above

Kd [pM]	koff [s⁻¹]	kon [M⁻¹ s⁻¹]	Binder
313	6.91e-05	221000	B12
560	0.00015	270000	B19
1100	0.00015	130000	B20
810	0.00011	140000	B21
980	0.00014	140000	B22
2000	0.00017	87000	B23
8280	0.00233	281000	B24
7040	0.00484	688000	B25
730	0.0001	140000	B26
15600	0.0222	1.42e+06	B27
